From patent US20260240958A1, “REPRESSOR FUSION PROTEIN SYSTEMS” (Scribe Therapeutics Inc., priority 2023, published 2026)

Assays:
human B2M locus = test: Indel rate by NGS at the human B2M locus in HepG2 cells treated with LNPs (CasX 491 mRNA and gRNA); assay type: cell-based; conditions: CasX 491 mRNA
Description: (§1) ~50,000 HepG2 cells, cultured in DMEM/F-12 media containing 10% FBS and 1% PenStrep, were seeded per well in a 96-well plate. The next day, seeded cells were treated with varying concentrations of LNPs, which were prepared in six 2-fold serial dilutions starting at 250 ng. These LNPs were formulated to encapsulate CasX 491 mRNA and a B2M-targeting gRNA incorporating either scaffold variant 174 or 316 with spacer 7.9 (v1; see Table 45). Media was changed 24 hours after LNP treatment, and cells were cultured for six additional days prior to harvesting for gDNA extraction for editing assessment at the B2M locus by NGS and B2M protein expression analysis via HLA immunostaining, followed by flow cytometry using the Attune NxT flow cytometer. Briefly, for editing assessment, amplicons were amplified from 200 ng of extracted gDNA with primers targeting the human B2M locus and processed as described in Example 1.

6.7/6.8 target dsDNA [1] = test: In vitro cleavage rate (kcleave) of CasX 491 RNPs with gRNA variants on labeled dsDNA target; assay type: biochemical; conditions: CasX 491 RNP, v1 gRNA, compared with scaffold 174
Description: (§2) Double-stranded DNA (dsDNA) targets were formed by mixing the oligos in a 1:1 ratio in 1× cleavage buffer (20 mM Tris HCl pH 7.5, 150 mM NaCl, 1 mM TCEP, […], 10 mM MgCl2), following by heating to 95° C. for 10 minutes, and then allowing the solution to cool to room temperature. CasX ribonucleoproteins (RNPs) were reconstituted with CasX 491 and the indicated gRNAs at a final concentration of 1 μM with 1.2-fold excess of the indicated gRNA in 1× cleavage buffer. RNPs were allowed to form at 37° C. for 10 minutes.
The effects of various structural and chemical modifications to the gRNA scaffold on the cleavage rate of CasX 491 RNPs were determined. Cleavage reactions were prepared with final RNP concentrations of 200 nM and final target concentrations of 10 nM, and reactions were carried out at 16° C. and initiated by the addition of the labeled target DNA substrate (Table 46). Aliquots of reactions were taken at 0.25, 0.5, 1, 2, 5, and 10 minutes and quenched by adding an equal volume of 95% formamide with 20 mM EDTA. Samples were denatured at 95° C. for 10 minutes and resolved on a 10% urea-PAGE gel. Gels were imaged on a Typhoon™ laser-scanner platform and quantified using ImageQuant™ TL 8.2 image analysis software (Cytiva™). The apparent first-order rate constant of non-target strand cleavage (kcieave-) was determined for each CasX:gRNA combination.

B2M locus [2] = test: B2M knockout (loss of HLA surface presentation, flow cytometry) in HepG2 cells with CasX 491 mRNA and B2M-targeting gRNA; assay type: cell-based, human; conditions: LNPs, CasX 491 mRNA, spacer 7.9 v1, each dose, compared with scaffold 174
Description: To compare the editing potency of version 0 (v0) and version 1 (v1) of B2M-targeting gRNAs, ~6E4 HepG2 hepatocytes were seeded per well of a 96-well plate. 24 hours later, seeded cells were co-transfected using lipofectamine with 100 ng of in vitro transcribed mRNA coding for CasX 491 and different doses (1, 5, or 50 ng) of either v0 or v1 of the B2M-targeting gRNA containing scaffold variant 174 and spacer 7.37 (see Table 45).
as §1

PCSK9 locus [3] = test: Secreted PCSK9 levels in media of HepG2 cells lipofected with CasX 491 mRNA and gRNA; assay type: cell-based, human; conditions: CasX 491 mRNA, v1 gRNAs spacers 6.7 and 6.8, compared with scaffold 174
Description: (§3) Editing at the PCSK9 locus and consequential effects on secreted PCSK9 levels were assessed for conditions using CasX 491 mRNA co-delivered with a PCSK9-targeting gRNA with scaffold variant 174 compared to conditions where a PCSK9-targeting gRNA with scaffold variant 316 was used. 100 ng of in vitro transcribed mRNA coding for CasX 491 with a P2A and mScarlet fluorescent protein was transfected into HepG2 cells with version 1 (v1) of gRNAs 174-6.7, 174-6.8, 316-6.7, and 316-6.8 (see Table 45) using lipofectamine. After a media change, the following were harvested at 28 hours post-transfection: 1) transfected cells were harvested for editing assessment at the PCSK9 locus by NGS (next generation sequencing); and 2) media supernatant was harvested to measure secreted PCSK9 protein levels by ELISA. For editing analysis by NGS, amplicons were amplified from 200 ng of extracted gDNA with a set of primers targeting the PCSK9 locus and processed as described earlier in Example 1. Secreted PCSK9 levels in the media supernatant were also analyzed using a fluorescence resonance energy transfer-based immunoassay from CISBio following the manufacturer's instructions. […]
(§4) V1 through v6 variants of chemically-modified PCSK9-targeting gRNAs (Table 45) were assessed for their effects on editing potency and consequential effects on secreted PCSK9 levels in vitro. […]

6.7/6.8 target dsDNA [4] = test: Competent (active) fraction of CasX 491 RNPs formed by each gRNA, equimolar cleavage assay; assay type: biochemical; conditions: CasX 491 RNP, v1 gRNA, spacer 6.7 or 6.8
Description: as §2
To determine the competent fraction formed by each gRNA, cleavage reactions were prepared with final RNP concentrations of 100 nM and final target concentrations of 100 nM. Reactions were carried out at 37° C. and initiated by the addition of the labeled target substrate (Table 46). Aliquots were taken at 0.5, 1, 2, 5, 10, and 30 minutes and quenched by adding an equal volume of 95% formamide with 25 mM EDTA. Samples were denatured by heating at 95° C. for 10 minutes and resolved on a 10% urea-PAGE gel. Gels were imaged and quantified as above. […] The plateau of each fit was determined and reported as the active fraction for each RNP in Table 49.

PCSK9 locus [5] = test: Editing (indel rate by NGS) at the PCSK9 locus in HepG2 cells lipofected with CasX 491 mRNA and gRNA; assay type: cell-based, human; conditions: CasX 491 mRNA, v1 gRNAs spacers 6.7 and 6.8, 28 hours
Description: as §3, §4

B2M locus [6] = test: B2M repression by HLA immunostaining and flow cytometry in HEK293T cells transfected with LTRP:gRNA plasmids

B1: scaffold 316: chimeric gRNA scaffold: scaffold 235 with extended stem loop of scaffold 174; SEQ ID NO 1746 (nucleic acid)
guide: ACUGGCGCUUCUAUCUGAUUACUCUGAGCGCCAUCACCAGCGACUAUGUCGUAGUGGGUAAAGCUCCCUCUUCGGAGGGAGCAUCAGAG
modifications: listed as RNA, further chemistry not given here
editing potency at the B2M locus (indel rate by NGS) (human B2M locus; spacer 7.9 v1, each dose, compared with scaffold 174): higher editing potency at the B2M locus | editing level at the B2M locus compared with scaffold 174 (human B2M locus; spacer 7.9 v1, highest dose of 250 ng): nearly two-fold higher | cleavage rate (6.7/6.8 target dsDNA [1]; spacer 6.7): marginally faster cleavage | cleavage rate (6.7/6.8 target dsDNA [1]; spacer 6.8): nearly twice as quickly | editing potency at the B2M locus (loss of HLA surface presentation) (B2M locus [2]): higher editing potency at the B2M locus | reduction of PCSK9 secretion (PCSK9 locus [3]): more effective reduction of PCSK9 secretion | active fraction higher than for scaffold 174 (6.7/6.8 target dsDNA [4]): 25-30% | increase in editing rate at the PCSK9 locus over scaffold 174 (PCSK9 locus [5]): ~ 10 percentage point

B2: DOMAIN_26749: repressor domain, Ophiophagus hannah, SEQ ID NO 135 (protein)
chain: STPVTFEDVVVYFTAAEWVHLTNWQRDFYQAVMMETYELVASVAGDGVPMAEDEEGGVERPVWQYIPRGKRRRKTPQPRAD
modifications: Ophiophagus hannah
B2M repression as second repressor domain in LTRP6 configuration (B2M locus [6]; 4 days post-transfection): highest level of B2M repression at 4 days post-transfection | B2M repression (HLA-negative cells) (B2M locus [6]; gRNA scaffold 174 spacer 7.165, LTRP6 = ZIM3 first, named domain second repressor domain, day not stated in text (Tables 16-18, days 4-13)): ~ 83.800%
